From doi:10.1101/2023.11.20.567910

How the values were obtained:
[1] = biological target: HIV-1AD8 Env variants (N332 substituted) tested against V3-glycan bnAbs
[2] = biological target: HIV-1AD8 Env variants (N332 substituted) tested against V3-glycan bnAbs; remark: listed apart in the source

For 2G12 (antibody), the IC50 of neutralisation: entry of Env-pseudotyped virus into Cf2-Th/CD4+CCR5+ cells (luciferase); told of most variants here, of all AD8 variants in p-0007 [1] was over 10 µg/mL.

Substance 10–1074 (antibody) has an IC50 of neutralisation: entry of Env-pseudotyped virus into Cf2-Th/CD4+CCR5+ cells (luciferase); told of most variants [1] of over 10 µg/mL.

PGT121 (antibody) showed an IC50 of neutralisation: entry of Env-pseudotyped virus into Cf2-Th/CD4+CCR5+ cells (luciferase) [2] of under 1 µg/mL.
